Earlier results on 1 substance are cited in US20110171162A1, “POLYMER CONJUGATES OF THYMOSIN ALPHA 1 PEPTIDES” (NEKTAR THERAPEUTICS, priority 2008, published 2011).

The conditions of this data set: in human plasma.

For the substance “thymosin alpha 1: Twenty-eight amino acid peptide, SEQ ID NO: 1 (SDAAVDTSSEITTKDLKEKKEVVEEAEN); sold as ZADAXIN thymosin alpha 1, injection (thymalfasin) (listed as Homo sapiens)”, the half-life result is “approximately two”.
